Reference: paper doi:10.1101/2024.05.12.593783
pKd: −log10 of the molar value.

What was measured:
[1] = molecular target: FITC-CLMBWT peptide (residues 21-50), not phosphorylated (UniProt Q96GX8); assay: fluorescence polarisation
[2] = molecular target: FITC-pCLMBWT peptide (residues 21-50, pThr44) (UniProt Q96GX8); assay: fluorescence polarisation

pKd [1]: 6.54
pKd [2]: 7.85
Substance: purified, catalytically inactive CNA/B containing CNA_(Trunc+H151Q) (from UniProt Q08209 1-391; P63098 1-170) (complex)
